pERK G12D (AsPC-1 and pERK WT (BxPC-3 data for eleven molecules are collected here from patent US20220323614A1, “KRAS-SPECIFIC CYCLIC PEPTIDES, COMPOSITIONS, AND METHODS OF USING AND MAKING” (Indi Molecular, Inc., priority 2021, published 2022).

Assay [1] addresses KRAS (G12D) as expressed in G12D-mutant cancer cells (AsPC-1, SW 1990, pancreatic cancer cells) (human) (UniProt P01116). Description: cell-based or functional assay.
Assay [2] has as its target KRAS (WT) as expressed in BxPC-3 cells (human) (UniProt P01116). As to the kind of experiment: cell-based or functional assay.

Primed or numbered codes have the meaning given here. Where no end group is shown, it is not given here. [ ]: non-standard residue; d: D form. The star is where a group is joined. Az2 = aminoazidobutanoic acid, ring closure; dPhe(4-Br) = N[C@H](Cc1ccc(Br)cc1)C(=O)O; 2Nal = N[C@@H](Cc1ccc2ccccc2c1)C(=O)O; Palmitoyl = CCCCCCCCCCCCCCCC(=O)*; Tic = O=C(O)[C@@H]1Cc2ccccc2CN1; Cha = N[C@@H](CC1CCCCC1)C(=O)O; Dab = NCC[C@H](N)C(=O)O; Thz′ = not defined here; Phf = not defined here

B1: Ac-wkyf-Az2-Lys(Pal) (peptide)
peptide: Ac-[dW][dK][dY][dF][Az2]K(Palmitoyl)
modifications: triazole (positions not given here); also: cyclic via triazole, other ring-closing residue not given here
In the case of B1, the pERK G12D (AsPC-1 at 4 µM for 12 hours) in assay [1] was 0.794. In assay [2], this molecule registered a pERK WT (BxPC-3 at 4 µM for 12 hours) of 1.16.

B2: Ac-(Tic)kyf-Lys(Pal) (peptide)
peptide: Ac-[Tic][dK][dY][dF]K(Palmitoyl)
modifications: triazole (positions not given here); also: cyclic via triazole, ring-closing residues not given here
In turn, B2 came in with a pERK G12D (AsPC-1 at 4 µM for 12 hours) in assay [1] of 0.974. The pERK WT (BxPC-3 at 4 µM for 12 hours) in assay [2] amounted to 0.806.

B3: Ac-wky(Cha)-Lys(Pal) (peptide)
peptide: Ac-[dW][dK][dY][Cha]K(Palmitoyl)
modifications: triazole (positions not given here); also: cyclic via triazole, ring-closing residues not given here
In turn, B3 yielded a pERK G12D (AsPC-1 at 4 µM for 12 hours) in assay [1] of 1.13. In assay [2], the pERK WT (BxPC-3 at 4 µM for 12 hours) worked out at 1.27.

B4: Ac-wky(4-Br-f)-Lys(Pal) (peptide)
peptide: Ac-[dW][dK][dY][dPhe(4-Br)]K(Palmitoyl)
modifications: triazole (positions not given here); also: cyclic via triazole, ring-closing residues not given here
In assay [1], B4 registered a pERK G12D (AsPC-1 at 4 µM for 12 hours) of 0.606. Moreover, the pERK WT (BxPC-3 at 4 µM for 12 hours) in assay [2] was determined as 1.09.

B5: Ac-wky(4-Cl-f)-Lys(Pal) (peptide)
peptide: Ac-[dW][dK][dY][4‑Cl‑f]K(Palmitoyl)
modifications: triazole (positions not given here); also: cyclic via triazole, ring-closing residues not given here
B5 gave a pERK G12D (AsPC-1 at 4 µM for 12 hours) in assay [1] of 0.8. For the same molecule, in assay [2], the pERK WT (BxPC-3 at 4 µM for 12 hours) is 1.05.

B6: Ac-wky(4-F-f)-Lys(Pal) (peptide)
peptide: Ac-[dW][dK][dY][4‑F‑f]K(Palmitoyl)
modifications: triazole (positions not given here); also: cyclic via triazole, ring-closing residues not given here
As to B6, the pERK G12D (AsPC-1 at 4 µM for 12 hours) in assay [1] came to 1.14. This molecule also showed a pERK WT (BxPC-3 at 4 µM for 12 hours) in assay [2] of 1.71.

B7: Ac-(Thz)kyf-Lys(Pal) (peptide)
peptide: Ac-[Thz′][dK][dY][dF]K(Palmitoyl)
modifications: triazole (positions not given here); reading uncertain; also: cyclic via triazole, ring-closing residues not given here, printed as Ac-(Thz)kyf-Lys(Pal)
As to B7, the pERK G12D (AsPC-1 at 4 µM for 12 hours) in assay [1] was found to be 1.11. The pERK WT (BxPC-3 at 4 µM for 12 hours) in assay [2] came out at 0.851.

B8: Ac-w(Dab)yf-Lys(Pal) (peptide)
peptide: Ac-[dW][Dab][dY][dF]K(Palmitoyl)
modifications: triazole (positions not given here); also: cyclic via triazole, ring-closing residues not given here
The molecule B8 displayed a pERK G12D (AsPC-1 at 4 µM for 12 hours) in assay [1] of 0.625. For the same molecule, the pERK WT (BxPC-3 at 4 µM for 12 hours) in assay [2] stood at 0.982.

B9: Ac-wky(Phf)-Lys(Pal) (peptide)
peptide: Ac-[dW][dK][dY][Phf]K(Palmitoyl)
modifications: triazole (positions not given here); reading uncertain; also: cyclic via triazole, ring-closing residues not given here, printed as Ac-wky(Phf)-Lys(Pal)
In turn, B9 returned a pERK G12D (AsPC-1 at 4 µM for 12 hours) in assay [1] of 1.32. In assay [2], the pERK WT (BxPC-3 at 4 µM for 12 hours) was determined as 0.757.

B10: Ac-wky(2-Nal)-Lys(Pal) (peptide)
peptide: Ac-[dW][dK][dY][2Nal]K(Palmitoyl)
modifications: triazole (positions not given here); also: cyclic via triazole, ring-closing residues not given here
Regarding B10, the pERK G12D (AsPC-1 at 4 µM for 12 hours) in assay [1] was 0.71. Further, the pERK WT (BxPC-3 at 4 µM for 12 hours) in assay [2] worked out at 0.871.

B11: Ac-wk(4-Br-f)f-Lys(Pal) (peptide)
peptide: Ac-[dW][dK][dPhe(4-Br)][dF]K(Palmitoyl)
modifications: triazole (positions not given here); also: cyclic via triazole, ring-closing residues not given here
B11 displayed a pERK G12D (AsPC-1 at 4 µM for 12 hours) in assay [1] of 0.776. The molecule further yielded a pERK WT (BxPC-3 at 4 µM for 12 hours) in assay [2] of 0.895.
